For experiment [1], the target named is chemokine receptor CCR4 (human) (UniProt P51679). Briefly: cell-based or functional assay.
Experiment [2] concerns the target human chemokine receptor CCR5 (human), P51681.
Experiment [3] has the same target. Briefly: cell-based or functional assay.
The target in experiment [4] is T1, chemokine receptor CCR1 (human), P32246.
T1 chain: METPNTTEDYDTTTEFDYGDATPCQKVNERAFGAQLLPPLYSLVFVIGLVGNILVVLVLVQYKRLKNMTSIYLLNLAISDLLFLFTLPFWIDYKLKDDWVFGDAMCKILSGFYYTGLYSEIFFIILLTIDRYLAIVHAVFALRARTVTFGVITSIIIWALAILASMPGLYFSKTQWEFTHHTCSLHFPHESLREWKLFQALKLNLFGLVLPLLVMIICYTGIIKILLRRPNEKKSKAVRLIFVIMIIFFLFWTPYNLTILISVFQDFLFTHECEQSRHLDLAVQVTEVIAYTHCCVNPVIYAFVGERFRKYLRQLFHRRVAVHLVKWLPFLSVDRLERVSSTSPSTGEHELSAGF
The experiment is described as follows: cell-based or functional assay.

Experiment [5] addresses human chemokine receptor CCR5 (human), P51681. The experiment is described as follows: competition binding against 166 pM 125I-CCL3 on human PBMCs.
In experiment [6] the target is chemokine receptor CCR8 (human) (UniProt P51685). The experiment is described as follows: cell-based or functional assay.
Sequence of chemokine receptor CCR8 (human) (P51685 whole entry): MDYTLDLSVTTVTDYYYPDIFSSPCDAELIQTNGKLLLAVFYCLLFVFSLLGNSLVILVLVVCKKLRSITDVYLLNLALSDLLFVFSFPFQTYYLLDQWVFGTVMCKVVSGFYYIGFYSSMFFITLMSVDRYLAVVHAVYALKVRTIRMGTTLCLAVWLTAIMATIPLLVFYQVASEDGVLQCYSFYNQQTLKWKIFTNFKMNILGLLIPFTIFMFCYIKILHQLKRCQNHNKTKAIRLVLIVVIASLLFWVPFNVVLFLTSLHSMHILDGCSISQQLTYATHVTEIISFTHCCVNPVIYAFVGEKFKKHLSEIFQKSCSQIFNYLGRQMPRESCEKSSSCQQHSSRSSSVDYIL

Where two headings read alike, the source gives them in different places.

Sequence of human chemokine receptor CCR5 (human), P51681 (P51681 whole entry): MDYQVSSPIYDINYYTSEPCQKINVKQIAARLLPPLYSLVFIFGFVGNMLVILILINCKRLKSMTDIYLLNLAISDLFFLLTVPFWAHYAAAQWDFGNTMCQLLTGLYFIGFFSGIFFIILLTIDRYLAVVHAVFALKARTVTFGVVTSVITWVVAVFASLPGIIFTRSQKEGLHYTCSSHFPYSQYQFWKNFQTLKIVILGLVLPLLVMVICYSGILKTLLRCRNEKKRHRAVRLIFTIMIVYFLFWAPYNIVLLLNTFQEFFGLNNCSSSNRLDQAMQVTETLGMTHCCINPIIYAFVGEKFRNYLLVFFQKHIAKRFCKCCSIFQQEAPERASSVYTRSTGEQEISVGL
Sequence of chemokine receptor CCR4 (human) (P51679 whole entry): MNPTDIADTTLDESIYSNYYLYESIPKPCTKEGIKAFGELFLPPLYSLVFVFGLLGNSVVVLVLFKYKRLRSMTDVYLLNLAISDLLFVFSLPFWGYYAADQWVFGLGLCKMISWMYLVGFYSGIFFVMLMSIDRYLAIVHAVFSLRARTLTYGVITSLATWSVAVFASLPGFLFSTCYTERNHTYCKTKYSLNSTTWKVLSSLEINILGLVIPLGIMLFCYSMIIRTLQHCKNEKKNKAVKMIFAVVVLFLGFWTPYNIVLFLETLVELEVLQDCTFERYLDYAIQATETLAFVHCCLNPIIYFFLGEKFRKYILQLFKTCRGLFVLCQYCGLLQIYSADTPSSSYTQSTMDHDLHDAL

B1: CCL22 (ligand, human, UniProt O00626 25-93, looked up)
chain: GPYGANMEDSVCCRDYVRYRLPLRVVKHFYWTSDSCPRPGVVLLTFRDKEICADPRVPWVKMILNKLSQ
In turn, B1 registered a chemotaxis of HUT78 cells, concentration of maximal efficacy in experiment [1] of 10 nM.

Take FICSSPDAELFSEKSRMSSSVLLGCLLCCMDWSAAVPV (modifications not checked) [U83A-Npep, N-terminal spliced truncated form of U83A]: the IC50 (usually the midpoint of a concentration-inhibition curve) in experiment [2] came to 8.3 nM. In experiment [3], this molecule came in with an inhibition of HIV-1 YU2 infection at 50 nM of less than 50% and a reduction of HIV-1 JRCSF infectivity on CEM-NKR-CCR5-luc cells at 5 uM of 90%. Further, in experiment [4], the blocking of CCL3 induced calcium flux in CCR1-CHO cells by 100 nM pre-treatment was 50% and the blocking of the calcium response to 10 nM U83A in CCR1-CHO cells by 100 nM pre-treatment was determined as 50%. This molecule also gave an IC50 in experiment [5] of 92 nM.

B2: CCL1/I309 (ligand, human, UniProt P22362 24-96, looked up)
chain: KSMQVPFSRCCFSFAEQEIPLRAILCYRNTSSICSNEGLIFKLKRGKEACALDTVGWVQRHRKMLRHCPSKRK
As for B2, in experiment [6], the EC50, calcium mobilisation in CCR8-CHO cells is 3.87 nM and the chemotaxis of HUT78 cells, concentration of maximal efficacy is 1 nM.

The record behind these values is US20110098212A1.
